The values below come from US20040229241A1, “Cloned mammalian polyamine oxidase” (priority 2001, published 2004).

As a reminder, the Km is the substrate concentration at which the rate is half of its maximum.

Substrate in series [1]: NCCCNCCCCNCCCN
Nature of the series: cells, lysate or membranes named. The conditions noted are these: other: named compound as substrate, Lineweaver-Burk; 37.0 °C.

Substrate in series [2]: NCCCNCCCCNCCCN
Nature of the series: PAO activity of in vitro TnT (wheat germ) produced PAOh1, fluorescent H2O2 assay. Type of series: biochemical, human. Conditions: other: Lineweaver/Burke transformation; pH 9.0; 37.0 °C. The protocol: In Vitro Transcription and Translation. In vitro transcription and translation reactions were performed with the TnT-coupled wheat germ extract system. Parallel reactions were prepared by adding an unlabeled amino acid mixture to one reaction and a [^35S]methionine containing amino acid mixture to the other, according to the supplied protocol. Vector pcDNA3.1 and pPAOh1 were linearized by SalI restriction and served as the templates. The labeled translation reactions products were separated by 10% SDS-PAGE, and radioactivity on the labeled PAO band was determined by Phosphor image analysis using Image Quant software (Molecular Dynamics, Sunnyvale, Calif.).
Determination of PAO Enzyme Activity. The cultured H157 cells with or without treatment of 10 μM N^1, N″-bis(ethyl)norspermine (BENSpm) were homogenized with a Dounce tissue homogenizer in ice-cold 0.083 M sodium borate buffer (pH 9.0). […] The enzyme activity was stopped by the addition of 2.0 ml of 0.1 M NaOH solution. The fluorescence intensity was measured with excitation at 323 nm and emission at 426 nm. […] Protein content of the cellular homogenate was determined using the Bio-Rad protein assay kit (Bio-Rad). […] For determination of PAO activity in the product of the unlabeled TnT reaction, 10 μl of TnT reaction were used in the place of the homogenate. […]

B1: purified recombinant human PAOh1/SMO (Homo sapiens) (protein)
chain: MQSCESSGDSADDPLSRGLRRRGQPRVVVIGAGLAGLAAAKALLEQGFTDVTVLEASSHIGGRVQSVKLGHATFELGATWIHGSHGNPIYHLAEANGLLEETTDGERSVGRISLYSKNGVACYLTNHGRRIPKDVVEEFSDLYNEVYNLTQEFFRHDKPVNAESQNSVGVFTREEVRNRIRNDPDDPEATKRLKLAMIQQYLKVESCESSSHSMDEVSLSAFGEWTEIPGAHHIIPSGFMRVVELLAEGIPAHVIQLGKPVRCIHWDQASARPRGPEIEPRGEGDHNHDTGEGGQGGEEPRGGRWDEDEQWSVVVECEDCELIPADHVIVTVSLGVLKRQYTSFFRPGLPTEKVAAIHRLGIGTTDKIFLEFEEPFWGPECNSLQFVWEDEAESHTLTYPPELWYRKICGFDVLYPPERYGHVLSGWICGEEALVMEKCDDEAVAEICTEMLRQFTGNPNIPKPRRILRSAWGSNPYFRGSYSYTQVGSSGADVEKLAKPLPYTESSKTAPMQVLFSGEATHRKYYSTTHGALLSGQREAARLIEMYRDLFQQGT
For the protein B1, in series [1], the Michaelis-Menten constant (Km) amounted to 1.63 µM and the Vmax came to 7.72 μmol/mg protein/min.

B2: human PAOh1 (Homo sapiens) (protein)
chain: MQSCESSGDSADDPLSRGLRRRGQPRVVVIGAGLAGLAAAKALLEQGFTDVTVLEASSHIGGRVQSVKLGHATFELGATWIHGSHGNPIYHLAEANGLLEETTDGERSVGRISLYSKNGVACYLTNHGRRIPKDVVEEFSDLYNEVYNLTQEFFRHDKPVNAESQNSVGVFTREEVRNRIRNDPDDPEATKRLKLAMIQQYLKVESCESSSHSMDEVSLSAFGEWTEIPGAHHIIPSGFMRVVELLAEGIPAHVIQLGKPVRCIHWDQASARPRGPEIEPRGEGDHNHDTGEGGQGGEEPRGGRWDEDEQWSVVVECEDCELIPADHVIVTVSLGVLKRQYTSFFRPGLPTEKVAAIHRLGIGTTDKIFLEFEEPFWGPECNSLQFVWEDEAESHTLTYPPELWYRKICGFDVLYPPERYGHVLSGWICGEEALVMEKCDDEAVAEICTEMLRQFTGNPNIPKPRRILRSAWGSNPYFRGSYSYTQVGSSGADVEKLAKPLPYTESSKTAPMQVLFSGEATHRKYYSTTHGALLSGQREAARLIEMYRDLFQQGT
notes: made in house; host or cells: TnT-coupled wheat germ extract (Promega), template pPAOh1 (pcDNA3.1)
With B2, the Km in series [2] stood at 18 µM.
